According to US20180071385A1 (LEIDOS, published 2018):

Target: human PD-1 on Jurkat cells (human, UniProt Q15116 25-288)
Test: cell-based or functional assay

Sequence of human PD-1 on Jurkat cells (Q15116 25-288): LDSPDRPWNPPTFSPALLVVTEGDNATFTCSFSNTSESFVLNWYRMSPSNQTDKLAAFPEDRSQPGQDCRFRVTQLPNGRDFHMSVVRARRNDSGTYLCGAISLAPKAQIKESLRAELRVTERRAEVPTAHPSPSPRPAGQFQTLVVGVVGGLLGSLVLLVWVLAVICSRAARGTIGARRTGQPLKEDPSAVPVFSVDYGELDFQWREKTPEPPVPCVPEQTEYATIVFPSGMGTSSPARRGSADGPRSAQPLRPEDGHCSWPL

B1: peptide QP20 (peptide)
peptide: QTRTVPMPKIHHPPWQNVVP
- EC50 (read off the curve), Fold Inhibition of RLU: ~8 µM
